# B1: HCV E2: Purified recombinant HCV envelope glycoprotein E2 (Ala 384-Lys 715) expressed in CHO cells, obtained from Austral Biologicals (protein)
# chain: ETHVTGGSAGHTVSGFVSLLAPGAKQNVQLINTNGSWHLNSTALNCNDSLNTGWLAGLFYHHKFNSSGCPERLASCRPLTDFDQGWGPISYANGSGPDQRPYCWHYPPKPCGIVPAKSVCGPVYCFTPSPVVVGTTDRSGAPTYSWGENDTDVFVLNNTRPPLGNWFGCTWMNSTGFTKVCGAPPCVIGGAGNNTLHCPTDCFRKHPDATYSRCGSGPWITPRCLVDYPYRLWHYPCTINYTIFKIRMYVGGVEHRLEAACNWTRGERCDLEDRDRSELSPLLLTTTQWQVLPCSFTTLPALSTGLIHLHQNIVDVQYLYGVGSSIASWAIK
# What was measured:
# Huh-7 cells = experiment: Cell binding assay by flow cytometry, Huh-7 cells; assay type: cell-based, human; conditions: 4° C.
# Description: FIG. 3A; FIG. 3B; and FIG. 3C: Incubation of LDL enhanced binding of HCV E2. […] Cell-bound E2 was detected using a monoclonal antiE2 antibody (FIG. 3A and FIG. 3C) or a polyclonal anti-E2 serum (FIG. 3B).
# (§1) MOLT-4 cells, a CD4^+ T lymphoblastoid cell line, and Huh7 cells of hepatocyte origin were obtained from ATCC (Manassas, Va.). Human foreskin fibroblasts (FSF) and LDLr-deficient foreskin fibroblasts (Null) from a patient with familial hypercholesterolemia (Hobbs et al., 1987) were kindly provided by Dr. Jheem Medh.
# (§2) Recombinant HCV E2 protein or HIV-gp120-FITC, human, rabbit or bovine lipoproteins, HCV or mock virus preparations were added to cells for 60 min at 4° C. Cells were washed and incubated with ligand-specific antibody for 60 min at 4° C. Antibody binding was detected using goat anti-human IgG-Oregon green (10 μg/ml) for 45 min at 4° C. Cells were washed two times, fixed in PBS containing 4% paraformaldehyde, and analyzed by flow cytometry (FACScan, Becton Dickinson).
# [1] = system: normal human foreskin fibroblasts (FSF); experiment: Cell binding assay by flow cytometry, human foreskin fibroblasts (FSF); assay type: cell-based
# Description: (§3) FIG. 4D: Binding of recombinant HCV E2 and E2-LDL to human fibroblasts (FSF) and human fibroblasts negative for the human LDLr (Null). Cells were detached non-enzymatically and incubated with E2 or E2/LDL proteins. Cell-bound E2 was detected with monoclonal anti-E2 antibody 108, followed by incubation with a secondary fluorescent labeled anti-human IgG. Cells were analyzed by flow cytometry.
# as §2
# (§4) The increased level of binding of both proteins to MOLT-4 cells may be due to an association between LDL and HCV E2 that enables the resulting complex to bind to either the LDLr or to CD81. To evaluate this interaction further, mouse 3T3 cells expressing only murine CD81 or cells expressing both murine and human CD81 were studied. […] Therefore, the enhanced E2 binding following incubation with LDL appears to require human LDLr expression on the cell surface. […]
# MOLT-4 cells = experiment: Cell binding assay by flow cytometry, MOLT-4 cells; assay type: cell-based, human
# Description: as §1, §2
# HCV-E2 was incubated with increasing concentrations of human LDL for one hour at 4° C. prior to the addition of proteins to MOLT-4 cells. Following one hour at 4° C., cells were washed and HCV E2 binding was detected by flow cytometry. […] The increase in E2 binding in the presence of LDL was seen when either the anti-HCV McAb or anti-HCV polyclonal anti-HCV were used for E2 detection (FIG. 3B). […] To determine if HCV E2 influenced binding of human LDL to MOLT-4 cells, HCV-E2 and fluorescently labeled LDL were incubated for one hour at 4° C. and added to MOLT-4 cells for an additional hour. Cells were washed and analyzed for labeled-LDL binding (FIG. 3E and FIG. 3F).
# [2] = system: human fibroblasts that do not express the human LDLr (Null); experiment: Cell binding assay by flow cytometry, LDLr-deficient fibroblasts (Null); assay type: cell-based
# Description: as §3, §2, §4
# human LDL = experiment: ELISA for E2-LDL interaction (anti-LDL McAb capture, anti-E2 McAb detection); assay type: binding
# Description: FIG. 2: Interaction of E2 with LDL. Increasing amounts of LDL were incubated with purified E2 protein at 4° C. and allowed to bind to mouse monoclonal anti-apolipoprotein B antibody coated in ELISA plates. LDL bound E2 protein was detected with a monoclonal anti-E2 antibody, followed by an alkaline-phosphatase labeled secondary antibody and PNPP substrate. The subtracted blank consisted of E2 protein in the absence of LDL.
# Microtiter plates were prepared by coating wells with 100 μl anti-LDL McAb (4 μg/ml in 100 mM bicarbonate buffer, pH 9.6) overnight (ON) at RT (Wuenschmann et al., 2000). […] Plates were washed twice with TBS followed by the addition of 100 μl of E2 protein or E2 protein with LDL in PBS. After ON incubation of samples at RT, plates were washed three times with TBS followed by the addition of anti HCV E2 McAb 108 (7.5 μg/ml). Plates were incubated for 1.5 h and washed three times with TBS; then 100 μl of anti-human IgG-alkaline phosphatase conjugate (Promega, Madison, Wis.) diluted 1/5,000 in BLOTTO was added for 1 h at RT washed four times with TBS, and incubated for 30 min with a 1-mg/ml solution of p-nitrophenyl phosphate (PNPP). Absorbance was measured at 405 nm with a multiwell plate reader. […]
# [3] = system: 3T3 cells expressing human CD81; experiment: Cell binding assay by flow cytometry, mouse 3T3 cells with or without human CD81; assay type: cell-based
# Description: FIG. 4B: Binding of recombinant HCV E2 to mouse 3T3 cells. Cells were detached non-enzymatically and incubated with recombinant E2 protein. Cell-bound E2 was detected with monoclonal anti-E2 antibody 108, followed by incubation with a secondary fluorescent labeled anti-human IgG. Cells were analyzed by flow cytometry.
# FIG. 4C: Binding of HCV E2 and HCV-E2/LDL to mouse 3T3-human CD81 cells. Cells were detached non-enzymatically and incubated with E2 alone or E2/LDL. Cell-bound E2 was detected with monoclonal anti-E2 antibody 108, followed by incubation with a secondary fluorescent labeled anti-human IgG. Cells were analyzed by flow cytometry.
# as §2
# The increased level of binding of both proteins to MOLT-4 cells may be due to an association between LDL and HCV E2 that enables the resulting complex to bind to either the LDLr or to CD81. […]
molecule,measurement,setting,value
B1,Binding of E2 protein to Huh-7 cells after preincubation with human LDL,Huh-7 cells,increased binding of E2 protein
same,E2 binding to FSF fibroblasts,[1]; E2 alone,bound
same,E2 binding to LDLr-expressing fibroblasts when preincubated with LDL,[1]; preincubation with LDL,increased binding
same,E2 binding to MOLT-4 cells,"MOLT-4 cells; E2 alone, 4° C.",bound to MOLT-4 cells
same,Amount of labeled LDL bound to MOLT-4 cells after preincubation of LDL with HCV-E2,"MOLT-4 cells; LDL up to concentrations of 2.5 μg/ml, 4° C.",the amount of LDL bound increased
same,LDL concentration at which the increase in E2 binding was saturable,"MOLT-4 cells; MOLT-4 cells, 4° C.",> 2.5 µg/mL
same,HCV E2 binding to MOLT-4 cells stripped of lipoproteins by dextran sulfate,MOLT-4 cells; cell bound bovine lipoproteins removed with dextran sulfate,decreased
same,Amount of E2 bound to MOLT-4 cells after incubation with lipoproteins,"MOLT-4 cells; human VLDL, LDL and HDL, bovine lipoproteins",increased
same,Amount of cell-bound E2 on MOLT-4 cells after preincubation with apoprotein B,MOLT-4 cells; preincubation with apoprotein B (apoB100),did not increase the amount of cell-bound E2
same,Amount of E2 protein bound to MOLT-4 cells after addition of LDL,MOLT-4 cells; preincubation with human LDL one hour at 4° C.,increased the amount of E2 protein bound
same,E2 binding to Null fibroblasts,[2]; E2 alone,bound
same,Binding of E2-LDL complexes to Null cells compared with E2 alone,[2]; preincubation with LDL,equally to E2 alone
same,HCV E2 detected in ELISA with murine McAb against human LDL as capture antibody,human LDL; E2 alone vs E2 with LDL,only detected when complexed with LDL
same,Extent of E2 captured in relation to LDL concentration,human LDL; increasing amounts of LDL,directly correlated to the LDL concentration used
same,E2 binding to 3T3 cells,[3]; 3T3 cells expressing human CD81 vs control 3T3 cells,bound only to 3T3 cells expressing human CD81
same,Amount of cell bound HCV E2 on 3T3-human CD81 cells after preincubation with LDL,[3]; preincubation with LDL,did not increase the amount of cell bound HCV E2
